According to patent US6730779B2, “Antibody that specifically binds an Mch4 polypeptide” (IDUN Pharmaceuticals, Inc., priority 1996, dated 2004):

Columns and labels:
CPP32 [1] = biological target: T1, CPP32 (Homo sapiens, UniProt P42574); test: Kinetic comparison of CPP32 with tetrapeptide substrates; settings: CPP32 versus Mch4
T1 sequence (P42574 29-175 limits assumed): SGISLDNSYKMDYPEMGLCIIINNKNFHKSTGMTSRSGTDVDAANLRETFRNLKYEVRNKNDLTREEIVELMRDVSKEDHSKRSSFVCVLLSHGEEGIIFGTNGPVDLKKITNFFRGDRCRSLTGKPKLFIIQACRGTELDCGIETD
T1 sequence (P42574 176-277 limits assumed): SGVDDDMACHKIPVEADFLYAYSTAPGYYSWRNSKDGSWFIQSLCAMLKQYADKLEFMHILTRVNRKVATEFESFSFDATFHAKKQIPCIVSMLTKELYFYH

Mch4 = biological target: T2, Mch4 (Homo sapiens, UniProt Q92851); test: Continuous fluorometric assay of recombinant Mch4 protease activity (kinetic parameters); settings: for Km: tetrapeptide substrate, bacterially expressed GST-Mch4, ICE buffer pH 7.5, room temperature
T2 sequence (Q92851 194-372 isoform Q92851-2): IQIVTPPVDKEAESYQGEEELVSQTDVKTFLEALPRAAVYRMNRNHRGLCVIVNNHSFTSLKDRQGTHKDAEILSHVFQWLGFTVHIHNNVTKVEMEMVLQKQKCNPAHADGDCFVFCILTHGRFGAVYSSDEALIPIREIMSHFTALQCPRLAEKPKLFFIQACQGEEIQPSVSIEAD
T2 sequence (Q92851 373-479 isoform Q92851-2): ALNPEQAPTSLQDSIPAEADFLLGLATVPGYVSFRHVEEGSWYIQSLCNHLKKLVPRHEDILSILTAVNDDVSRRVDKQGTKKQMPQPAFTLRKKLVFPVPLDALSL
Description: The kinetic properties of bacterially expressed recombinant Mch4 were determined using the tetrapeptide substrates DEVD-AMC and YVAD-AMC in a continuous fluorometric assay (Table I). […] After induction with IPTG, bacterial extracts were prepared from E. coli expressing the recombinant fusion proteins. The extracts were adsorbed to glutathione-Sepharose resin, washed several times and then analyzed by SDS-PAGE.
The purified Mch4 GST-fusion protein was then used for further enzymatic analyses. The activity of Mch4 was measured using bacterial lysates prepared with ICE buffer (25 mM HEPES, 1 mM EDTA, 5 mM DTT, 0.1% CHAPS, 10% sucrose, pH 7.5) at room temperature (24-25° C.).

CPP32 [2] = biological target: T1, CPP32; settings: cited from earlier work
[3] = tested on: MCF7 human breast carcinoma cell line; test: Apoptosis of MCF7 cells after transfection with Mch5B expression vector; settings: 36 hours after transfection, control plasmid pcDNA3 about 50%
Sf9 cells = test: Induction of apoptosis in Sf9 cells by recombinant baculovirus expression; type: cell-based; settings: about 48 h postinfection
From the text: Briefly, Sf9 cells were infected with recombinant baculoviruses encoding full length proMch4 or full length CPP32 as a standard (Fernandes-Alnemri et al., J. Biol. Chem. 269:30761-30764 (1994)). Cells were then examined microscopically for morphological signs of apoptosis such as blebbing of the cytoplasmic membrane, condensation of nuclear chromatin and release of small apoptotic bodies. In addition the genomic DNA was examined for internucleosomal DNA cleavage.
For the construction of transfer vectors and recombinant baculoviruses, the full length proMch4 in pBluescript KS+ was excised with Bam HI and EcoRI and subcloned into a Bam HI/EcoRI cut pVL1393 vector (Invitrogen, San Diego, Calif.) to generate the pVL-proMch4 transfer vector. The pVL-CPP32 transfer vector was made as described previously (Fernandes-Alnemri et al., supra (1994)). […]
For-the induction of apoptosis in Sf9 cells by proMch4 and CPP32 cells were infected with recombinant baculoviruses AcNPV-proMch4 or AcNPV-CPP32. Apoptosis was measured microscopically by counting cells with the appropriate morphology (blebbing, nuclear condensation). Alternatively, internucleosomal DNA cleavage is assessed as a characteristic marker. […] The DNA samples were analyzed by electrophoresis in a 1.8% agarose gel containing ethidium bromide.

DEVD-AMC: fluorescent tetrapeptide substrate representing the PARP cleavage site
specificity of CPP32 for the substrate compared to Mch4 (ratio of Vmax/Km) (CPP32 [1]): > 500 fold | Km (Mch4): 130 µM

YVAD-AMC: tetrapeptide substrate representing the IL-1β cleavage site
KM for YVAD-AMC relative to KM for DEVD-AMC (CPP32 [2]): > 35 fold | Km (Mch4): 150 µM

Mch5B: FADD-like domain B of proMch5 (amino acid 128-205), expressed from pcDNA3 vector in MCF7 cells
percentage of transfected cells that were apoptotic [3]: about 80%

CC(=O)N[C@@H](CC(=O)O)C(=O)N[C@@H](CCC(=O)O)C(=O)N[C@H](C(=O)N[C@H](C=O)CC(=O)O)C(C)C [DEVD-CHO]
Ki (Mch4): 14 nM

B1: proMch4: full length proMch4 (SEQ ID NO:2) expressed in Sf9 cells by recombinant baculovirus (protein)
chain: MKSQGQHWYSSSDKNCKVSFREKLLIIDSNLGVQDVENLKFLCIGLVPNKKLEKSSSASDVFEHLLAEDLLSEEDPFFLAELLYIIRQKKLLQHLNCTKEEVERLLPTRQRVSLFRNLLYELSEGIDSENLKDMIFLLKDSLPKTEMTSLSFLAFLEKQGKIDEDNLTCLEDLCKTVVPKLLRNIEKYKREKAIQIVTPPVDKEAESYQGEEELVSQTDVKTFLEALPRAAVYRMNRNHRGLCVIVNNHSFTSLKDRQGTHKDAEILSHVFQWLGFTVHIHNNVTKVEMEMVLQKQKCNPAHADGDCFVFCILTHGRFGAVYSSDEALIPIREIMSHFTALQCPRLAEKPKLFFIQACQGEEIQPSVSIEADALNPEQAPTSLQDSIPAEADFLLGLATVPGYVSFRHVEEGSWYIQSLCNHLKKLVPRHEDILSILTAVNDDVSRRVDKQGTKKQMPQPAFTLRKKLVFPVPLDALSI
induction of apoptosis (morphology, internucleosomal DNA cleavage) (Sf9 cells): caused a significant percentage of the cells to undergo apoptosis
